For this data set, the target named is T1, Fkh1-DBD (Saccharomyces cerevisiae, UniProt P40466 299-421).
T1 sequence: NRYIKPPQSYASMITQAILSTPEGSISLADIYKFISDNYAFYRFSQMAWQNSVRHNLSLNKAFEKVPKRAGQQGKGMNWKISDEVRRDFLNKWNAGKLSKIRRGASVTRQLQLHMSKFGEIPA
Nature of the data set: X-ray crystallography.

B1: 19-bp DNA binding oligo (dsDNA)
DNA 1: CGAAATGTAAACATACCGC
DNA 2: GCGGTATGTTTACATTTCG
On to B1, for which the binding result is recorded as “binds”.

Source of the values: article PMC12458081.
